Assay results from PMC4228979, “Conserved cis-regulatory modules in promoters of genes encoding wheat high-molecular-weight glutenin subunits”.

Target: T1, His-SPA (Storage Protein Activator, bZIP) (UniProt A0A9R1IS55 1-409)
T1 sequence: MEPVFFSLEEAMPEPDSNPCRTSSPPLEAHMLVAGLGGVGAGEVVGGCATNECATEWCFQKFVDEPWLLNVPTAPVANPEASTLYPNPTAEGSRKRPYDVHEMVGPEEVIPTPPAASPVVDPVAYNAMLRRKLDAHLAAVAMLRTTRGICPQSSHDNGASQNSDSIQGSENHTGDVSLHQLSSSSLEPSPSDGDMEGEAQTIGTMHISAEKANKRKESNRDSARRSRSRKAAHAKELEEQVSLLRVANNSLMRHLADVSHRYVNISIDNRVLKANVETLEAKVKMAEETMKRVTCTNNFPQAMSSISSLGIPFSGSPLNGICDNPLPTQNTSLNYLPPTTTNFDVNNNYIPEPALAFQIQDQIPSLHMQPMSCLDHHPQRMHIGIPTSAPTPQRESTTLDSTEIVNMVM
Test: EMSA; 10 mM Tris pH 7.5, 100 mM KCl, 2 mM DTT, 2 mM EDTA, 10% glycerol, 0.05% nonyl phenoxypolyethoxylethanol, 0.5 mM PMSF, 100 ng/uL poly(dI.dC), 250 ng/uL fish sperm DNA; 20 fmol probe, 560 ng-4 ug protein in 20 uL; 30 min, room temperature; gel at 4 C
Conditions: protein: recombinant; tags: His tag (pDEST17); chain copies: 2; label: 3' biotin on each strand; blunt

Binder | binding result
mutated G-box (dsDNA) DNA 1: GCCCATTCTCTGGCTTTAGCAGACC DNA 2: GGTCTGCTAAAGCCAGAGAATGGGC | no binding
GLM2 (-626) (dsDNA) DNA 1: ATAGATATTGTGAGTCAGCATGGAT DNA 2: ATCCATGCTGACTCACAATATCTAT | binds
glm1 (dsDNA) DNA 1: ATAGATGTTTTTATTAATTGGATAG DNA 2: CTATCCAATTAATAAAAACATCTAT | no binding
